Numbering of substitutions follows the chain as printed. Numbers in names are those of the source. Values belong to the binder of their own block, whether it stands above or below them.
Biological target: T1, recombinant human activated Factor VII (FVIIa) (human, UniProt P08709 61-212; P08709 213-466, ten glutamate residues of the Gla domain may be gamma-carboxylated)
T1 construct: chains tethered by a disulfide bond; also called Factor VIIa; rFVIIa
T1 sequence 1: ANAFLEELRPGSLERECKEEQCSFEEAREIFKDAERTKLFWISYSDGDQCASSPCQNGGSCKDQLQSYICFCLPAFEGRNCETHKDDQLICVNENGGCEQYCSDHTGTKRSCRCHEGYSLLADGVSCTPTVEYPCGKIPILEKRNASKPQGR
T1 sequence 2: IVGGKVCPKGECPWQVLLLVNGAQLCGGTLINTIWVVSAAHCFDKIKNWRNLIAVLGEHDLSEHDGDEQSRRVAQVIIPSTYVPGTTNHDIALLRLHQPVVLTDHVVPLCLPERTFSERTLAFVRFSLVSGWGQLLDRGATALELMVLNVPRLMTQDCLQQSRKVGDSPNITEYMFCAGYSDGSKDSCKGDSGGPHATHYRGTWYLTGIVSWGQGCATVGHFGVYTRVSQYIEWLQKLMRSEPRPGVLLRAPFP
Test: BLI (Fortebio)

- Kd: 1.3 nM
B1: VH SEQ ID NO 618 / VL SEQ ID NO 454 (antibody, IgG4, V domains shown)
VH: QVQLQESGPGLVKPSQTLSLTCTVSGYSISSDSAWSWIRQFPGKGLEWIGYIQYSGSTNYNPSLKSRVTISRDTSKNQFSLKLSSVTAADTAVYYCARSVNYYGNSFAVGPWGQGTLVTVSS
VL: EIVLTQSPATLSLSPGERATLSCRASQGVSDYLHWYQQKPGEAPRLLIKYASQPATGIPARFSGSGSGTDFTLTISSLEPEDFAVYYCQNGHSFPLTFGQGTKLEIK
notes: humanized 11F2; IgG4 S228P/kappa

- Kd: 820 nM
B2: VH SEQ ID NO 626 / VL SEQ ID NO 398 (antibody, IgG4, V domains shown)
VH: B1 VH with F41P
VL: B1 VL with H34A, A51T
notes: as for B1

- Kd: 87 nM
B3: VH SEQ ID NO 626 / VL SEQ ID NO 406 (antibody, IgG4, V domains shown)
VH: B1 VH with F41P
VL: B1 VL with H34A, E42Q, Q100A
notes: as for B1

- Kd: 1.4 nM
B4: VH SEQ ID NO 618 / VL SEQ ID NO 494 (antibody, IgG4, V domains shown)
VH: B1 VH
VL: B1 VL with E42Q, F83V
notes: as for B1

- Kd: 1.2 nM
B5: VH SEQ ID NO 618 / VL SEQ ID NO 486 (antibody, IgG4, V domains shown)
VH: B1 VH
VL: B1 VL with E42Q, A84G
notes: as for B1

- Kd: 0.71 nM
B6: VH SEQ ID NO 626 / VL SEQ ID NO 318 (antibody, IgG4, V domains shown)
VH: B1 VH with F41P
VL: B1 VL with V29I, A51T
notes: as for B1

- Kd: 0.65 nM
B7: VH SEQ ID NO 626 / VL SEQ ID NO 350 (antibody, IgG4, V domains shown)
VH: B1 VH with F41P
VL: B1 VL with V29I, E42Q, A51T, Q100A, I106L
notes: as for B1

- Kd: 9.2 nM
B8: VH SEQ ID NO 626 / VL SEQ ID NO 310 (antibody, IgG4, V domains shown)
VH: B1 VH with F41P
VL: B1 VL with V29I, H34A, E42Q
notes: as for B1

- Kd: 0.95 nM
B9: VH SEQ ID NO 626 / VL SEQ ID NO 334 (antibody, IgG4, V domains shown)
VH: B1 VH with F41P
VL: B1 VL with V29I, E42Q
notes: as for B1

- Kd: 2 nM
B10: VH SEQ ID NO 618 / VL SEQ ID NO 478 (antibody, IgG4, V domains shown)
VH: B1 VH
VL: B1 VL with E42Q, N90Q
notes: as for B1

- Kd: 0.72 nM
B11: VH SEQ ID NO 626 / VL SEQ ID NO 358 (antibody, IgG4, V domains shown)
VH: B1 VH with F41P
VL: B1 VL with V29I, E42Q, A51T
notes: as for B1

- Kd: 1 nM
B12: VH SEQ ID NO 634 / VL SEQ ID NO 342 (antibody, IgG4, V domains shown)
VH: B1 VH with F41P, P111Y
VL: B1 VL with V29I, E42Q, A51T, T69R, Q100A, I106L
notes: as for B1

- Kd: 1.4 nM
B13: VH SEQ ID NO 618 / VL SEQ ID NO 462 (antibody, IgG4, V domains shown)
VH: B1 VH
VL: B1 VL with E42Q, Q100A
notes: as for B1

- Kd: 1 nM
B14: VH SEQ ID NO 634 / VL SEQ ID NO 334 (antibody, IgG4, V domains shown)
VH: B1 VH with F41P, P111Y
VL: B1 VL with V29I, E42Q
notes: as for B1

- Kd: 1.1 nM
B15: VH SEQ ID NO 626 / VL SEQ ID NO 382 (antibody, IgG4, V domains shown)
VH: B1 VH with F41P
VL: B1 VL with V29L
notes: as for B1

- Kd: 1.4 nM
B16: VH SEQ ID NO 626 / VL SEQ ID NO 454 (antibody, IgG4, V domains shown)
VH: B1 VH with F41P
VL: B1 VL
notes: as for B1

- Kd: 1.8 nM
B17: VH SEQ ID NO 626 / VL SEQ ID NO 502 (antibody, IgG4, V domains shown)
VH: B1 VH with F41P
VL: B1 VL with E42Q, A51T
notes: as for B1

- Kd: 2400 nM
B18: VH SEQ ID NO 626 / VL SEQ ID NO 422 (antibody, IgG4, V domains shown)
VH: B1 VH with F41P
VL: B1 VL with H34A, E42Q, N90Q
notes: as for B1

- Kd: 1.2 nM
B19: VH SEQ ID NO 618 / VL SEQ ID NO 502 (antibody, IgG4, V domains shown)
VH: B1 VH
VL: B1 VL with E42Q, A51T
notes: as for B1

- Kd: 0.9 nM
B20: VH SEQ ID NO 634 / VL SEQ ID NO 326 (antibody, IgG4, V domains shown)
VH: B1 VH with F41P, P111Y
VL: B1 VL with V29I, A51T, A84G, Q100A, I106L
notes: as for B1

- Kd: 2.1 nM
B21: VH SEQ ID NO 634 / VL SEQ ID NO 310 (antibody, IgG4, V domains shown)
VH: B1 VH with F41P, P111Y
VL: B1 VL with V29I, H34A, E42Q
notes: as for B1

- Kd: 880 nM
B22: VH SEQ ID NO 626 / VL SEQ ID NO 446 (antibody, IgG4, V domains shown)
VH: B1 VH with F41P
VL: B1 VL with H34A, E42Q, A51T
notes: as for B1

- Kd: 77 nM
B23: VH SEQ ID NO 626 / VL SEQ ID NO 438 (antibody, IgG4, V domains shown)
VH: B1 VH with F41P
VL: B1 VL with H34A, E42Q, F83V
notes: as for B1

- Kd: 1.6 nM
B24: VH SEQ ID NO 626 / VL SEQ ID NO 486 (antibody, IgG4, V domains shown)
VH: B1 VH with F41P
VL: B1 VL with E42Q, A84G
notes: as for B1

- Kd: 1.8 nM
B25: VH SEQ ID NO 626 / VL SEQ ID NO 494 (antibody, IgG4, V domains shown)
VH: B1 VH with F41P
VL: B1 VL with E42Q, F83V
notes: as for B1

- Kd: 2.5 nM
B26: VH SEQ ID NO 626 / VL SEQ ID NO 478 (antibody, IgG4, V domains shown)
VH: B1 VH with F41P
VL: B1 VL with E42Q, N90Q
notes: as for B1

- Kd: 0.86 nM
B27: VH SEQ ID NO 634 / VL SEQ ID NO 318 (antibody, IgG4, V domains shown)
VH: B1 VH with F41P, P111Y
VL: B1 VL with V29I, A51T
notes: as for B1

- Kd: 1.4 nM
B28: VH SEQ ID NO 626 / VL SEQ ID NO 462 (antibody, IgG4, V domains shown)
VH: B1 VH with F41P
VL: B1 VL with E42Q, Q100A
notes: as for B1

- Kd: 1.2 nM
B29: VH SEQ ID NO 618 / VL SEQ ID NO 470 (antibody, IgG4, V domains shown)
VH: B1 VH
VL: B1 VL with E42Q
notes: as for B1

- Kd: 27 nM
B30: VH SEQ ID NO 626 / VL SEQ ID NO 390 (antibody, IgG4, V domains shown)
VH: B1 VH with F41P
VL: B1 VL with H34A
notes: as for B1

- Kd: 0.85 nM
B31: VH SEQ ID NO 626 / VL SEQ ID NO 342 (antibody, IgG4, V domains shown)
VH: B1 VH with F41P
VL: B1 VL with V29I, E42Q, A51T, T69R, Q100A, I106L
notes: as for B1

- Kd: 53 nM
B32: VH SEQ ID NO 626 / VL SEQ ID NO 430 (antibody, IgG4, V domains shown)
VH: B1 VH with F41P
VL: B1 VL with H34A, E42Q, A84G
notes: as for B1

- Kd: 87 nM
B33: VH SEQ ID NO 626 / VL SEQ ID NO 366 (antibody, IgG4, V domains shown)
VH: B1 VH with F41P
VL: B1 VL with V29L, H34A
notes: as for B1

- Kd: 18 nM
B34: VH SEQ ID NO 626 / VL SEQ ID NO 414 (antibody, IgG4, V domains shown)
VH: B1 VH with F41P
VL: B1 VL with H34A, E42Q
notes: as for B1

- Kd: 0.79 nM
B35: VH SEQ ID NO 626 / VL SEQ ID NO 326 (antibody, IgG4, V domains shown)
VH: B1 VH with F41P
VL: B1 VL with V29I, A51T, A84G, Q100A, I106L
notes: as for B1
